Source: patent publication US20180030151A1 (MOGAM INSTITUTE FOR BIOMEDICAL RESEARCH, published 2018)
Substitutions are numbered along the chain they refer to. Read-outs that look alike come from different tables or passages of the source.

B1: clone 2 (antibody, V domains shown)
VH: EVQLVESGGGLVKPGGSLRLSCAASGFTFSSYAMNWVRQAPGKGLEWVSTITTGGSYTYYADSVEGRFTISRDNAKNSLYLQMNSLRAEDTAVYYCARQDGNFLMDYWGQGTLVTVSS
VL: DVVMTQTPLSLPVTLGQPASISCKSSPSLLDIDGKTYLNWLQQRPGQSPKRLIYLVSKLDSGVPDRFTGSGSGTDFTLKISRVEAEDVGVYYCWQGTHFPFTFGQGTKVEIKR
B2: clone 23 (antibody, V domains shown)
VH: B1 VH with S31H, N102H
VL: B1 VL with F99L
B3: clone 16 (antibody, V domains shown)
VH: B1 VH with S31H, N35T, Y57H
VL: B1 VL
B4: clone 8 (antibody, V domains shown)
VH: B1 VH
VL: B1 VL with I32V
B5: clone 3 (antibody, V domains shown)
VH: B1 VH with S49G, Y57H, E65D
VL: B1 VL with I32V
B6: clone 13 (antibody, V domains shown)
VH: B1 VH with S49G, Y57H
VL: B1 VL
B7: clone 21 (antibody, V domains shown)
VH: B1 VH with T53K, E65D
VL: B1 VL with I32S

Assays:
Experiment in all cases: cell-based or functional assay
[1] = target: T1, recombinant human TFPI (tissue factor pathway inhibitor) (human, UniProt P10646 29-304)
[2] = target: T1, recombinant human TFPI (tissue factor …); remark: listed apart in the source
[3] = target: T1, recombinant human TFPI (tissue factor …); remark: listed apart in the source
[4] = target: T1, recombinant human TFPI (tissue factor …); remark: listed apart in the source
[5] = target: T1, recombinant human TFPI (tissue factor …); remark: listed apart in the source
[6] = target: T1, recombinant human TFPI (tissue factor …); remark: listed apart in the source
[7] = target: T1, recombinant human TFPI (tissue factor …); remark: listed apart in the source
[8] = target: T1, recombinant human TFPI (tissue factor …); remark: listed apart in the source

| Binder | % of Normalized, TF/FVIIa/FX complex assay (FX 5 nM), Ab 1.56 nM [1] [%] | % of Normalized, TF/FVIIa/FX complex assay (FX 5 nM), Ab 3.13 nM [1] [%] | % of Normalized, TF/FVIIa/FX complex assay (FX 5 nM), Ab 6.25 nM [1] [%] | % of Normalized, TF/FVIIa/FX complex assay (FX 5 nM), Ab 12.5 nM [1] [%] | % of Normalized, TF/FVIIa/FX complex assay (FX 5 nM), Ab 25 nM [1] [%] | % of Normalized, TF/FVIIa/FX complex assay (FX 5 nM), Ab 50 nM [1] [%] | % of Normalized, TF/FVIIa/FX complex assay (FX 5 nM), Ab 100 nM [1] [%] | FXa assay % of FXa alone, 2.5 nM Ab, 10 nM TFPI [2] [%] | FXa assay % of FXa alone, 5 nM Ab, 10 nM TFPI [2] [%] | FXa assay OD, 2.5 nM Ab, 10 nM TFPI [2] | FXa assay OD, 5 nM Ab, 10 nM TFPI [2] | FXa assay OD, 10 nM Ab, 10 nM TFPI [2] | FXa assay OD, 20 nM Ab, 10 nM TFPI [2] | effect of inhibiting TFPI, FXa activity assay, Ab 10 nM [3] [%] | effect of inhibiting TFPI, FXa activity assay, Ab 20 nM [3] [%] | FXa assay % of FXa alone, 2.5 nM Ab, 10 nM TFPI [4] [%] | FXa assay % of FXa alone, 5 nM Ab, 10 nM TFPI [4] [%] | FXa assay OD, 2.5 nM Ab, 10 nM TFPI [4] | FXa assay OD, 5 nM Ab, 10 nM TFPI [4] | FXa assay OD, 10 nM Ab, 10 nM TFPI [4] | also measured |
| --- | --- | --- | --- | --- | --- | --- | --- | --- | --- | --- | --- | --- | --- | --- | --- | --- | --- | --- | --- | --- | --- |
| B1 | 5.5 | 5.6 | 6.4 | 10.3 | 51.4 | 90.9 | 103 | 7.3 | 32.8 | 0.0605 | 0.271 | 0.632 | 0.721 | ~79 | ~76 | 8.2 | 45.3 | 0.0625 | 0.345 | 0.602 | FXa assay % of FXa alone, 10 nM Ab, 10 nM TFPI [2]: 76.5%; FXa assay % of FXa alone, 20 nM Ab, 10 nM TFPI [2]: 87.2%; FXa assay OD, 20 nM Ab, 10 nM TFPI [4]: 0.58; A405, TF/FVIIa/FX complex assay (FX 5 nM), Ab 1.56 nM [5]: 0.045; A405, TF/FVIIa/FX complex assay (FX 5 nM), Ab 3.13 nM [5]: 0.045; A405, TF/FVIIa/FX complex assay (FX 5 nM), Ab 6.25 nM [5]: 0.052; A405, TF/FVIIa/FX complex assay (FX 5 nM), Ab 12.5 nM [5]: 0.083; A405, TF/FVIIa/FX complex assay (FX 5 nM), Ab 25 nM [5]: 0.416; A405, TF/FVIIa/FX complex assay (FX 5 nM), Ab 50 nM [5]: 0.735; A405, TF/FVIIa/FX complex assay (FX 5 nM), Ab 100 nM [5]: 0.835 |
| B2 | – | – | – | – | – | – | – | – | – | – | – | – | – | – | – | – | – | – | – | – | FXa assay % of FXa alone, 2.5 nM Ab, 10 nM TFPI [6]: 6.9%; FXa assay % of FXa alone, 5 nM Ab, 10 nM TFPI [6]: 7.4%; FXa assay % of FXa alone, 10 nM Ab, 10 nM TFPI [6]: 10.4%; FXa assay % of FXa alone, 20 nM Ab, 10 nM TFPI [6]: 62.5%; FXa assay OD, 2.5 nM Ab, 10 nM TFPI [6]: 0.082; FXa assay OD, 10 nM Ab, 10 nM TFPI [6]: 0.124; FXa assay OD, 20 nM Ab, 10 nM TFPI [6]: 0.745 |
| B3 | – | – | – | – | – | – | – | – | – | – | – | – | – | ~34 | ~55 | – | – | – | – | – | FXa assay % of FXa alone, 2.5 nM Ab, 10 nM TFPI [6]: 7.3%; FXa assay % of FXa alone, 5 nM Ab, 10 nM TFPI [6]: 10.2%; FXa assay OD, 2.5 nM Ab, 10 nM TFPI [6]: 0.0865; FXa assay OD, 5 nM Ab, 10 nM TFPI [6]: 0.122; FXa assay OD, 10 nM Ab, 10 nM TFPI [6]: 0.405; FXa assay OD, 20 nM Ab, 10 nM TFPI [6]: 0.651 |
| B4 | 5.1 | 6.1 | 6.4 | 10.8 | 48.3 | 83.2 | 103 | 7.4 | 31 | 0.0615 | 0.256 | 0.583 | 0.64 | ~69 | ~80 | 7.1 | 33.8 | 0.054 | 0.258 | 0.527 | FXa assay % of FXa alone, 10 nM Ab, 10 nM TFPI [2]: 70.5%; FXa assay % of FXa alone, 20 nM Ab, 10 nM TFPI [2]: 77.5%; FXa assay OD, 20 nM Ab, 10 nM TFPI [4]: 0.61; A405, TF/FVIIa/FX complex assay (FX 5 nM), Ab 1.56 nM [5]: 0.041; A405, TF/FVIIa/FX complex assay (FX 5 nM), Ab 3.13 nM [5]: 0.05; A405, TF/FVIIa/FX complex assay (FX 5 nM), Ab 6.25 nM [5]: 0.052; A405, TF/FVIIa/FX complex assay (FX 5 nM), Ab 12.5 nM [5]: 0.088; A405, TF/FVIIa/FX complex assay (FX 5 nM), Ab 25 nM [5]: 0.391; A405, TF/FVIIa/FX complex assay (FX 5 nM), Ab 50 nM [5]: 0.673; A405, TF/FVIIa/FX complex assay (FX 5 nM), Ab 100 nM [5]: 0.834 |
| B5 | 5.6 | 5.7 | 7.2 | 17.4 | 65.1 | 91.8 | 104 | – | – | – | – | – | – | ~70 | ~81 | 10.8 | 45.5 | 0.0825 | 0.346 | 0.536 | FXa assay OD, 20 nM Ab, 10 nM TFPI [4]: 0.618; A405, TF/FVIIa/FX complex assay (FX 5 nM), Ab 1.56 nM [5]: 0.045; A405, TF/FVIIa/FX complex assay (FX 5 nM), Ab 3.13 nM [5]: 0.046; A405, TF/FVIIa/FX complex assay (FX 5 nM), Ab 6.25 nM [5]: 0.059; A405, TF/FVIIa/FX complex assay (FX 5 nM), Ab 12.5 nM [5]: 0.141; A405, TF/FVIIa/FX complex assay (FX 5 nM), Ab 25 nM [5]: 0.527; A405, TF/FVIIa/FX complex assay (FX 5 nM), Ab 50 nM [5]: 0.743; A405, TF/FVIIa/FX complex assay (FX 5 nM), Ab 100 nM [5]: 0.842 |
| B6 | – | – | – | – | – | – | – | 7.8 | 44.8 | 0.0645 | 0.37 | 0.624 | 0.706 | ~76 | ~85 | – | – | – | – | – | % of Normalized, TF/FVIIa/FX complex assay, Ab 1.56 nM [7]: 5.4%; % of Normalized, TF/FVIIa/FX complex assay, Ab 3.13 nM [7]: 6.4%; % of Normalized, TF/FVIIa/FX complex assay, Ab 6.25 nM [7]: 8.8%; % of Normalized, TF/FVIIa/FX complex assay, Ab 12.5 nM [7]: 11.9%; % of Normalized, TF/FVIIa/FX complex assay, Ab 25 nM [7]: 62.2%; % of Normalized, TF/FVIIa/FX complex assay, Ab 50 nM [7]: 96.5%; % of Normalized, TF/FVIIa/FX complex assay, Ab 100 nM [7]: 101%; A405, TF/FVIIa/FX complex assay, Ab 1.56 nM [8]: 0.046; A405, TF/FVIIa/FX complex assay, Ab 3.13 nM [8]: 0.054; A405, TF/FVIIa/FX complex assay, Ab 6.25 nM [8]: 0.075; A405, TF/FVIIa/FX complex assay, Ab 12.5 nM [8]: 0.101; A405, TF/FVIIa/FX complex assay, Ab 25 nM [8]: 0.528; A405, TF/FVIIa/FX complex assay, Ab 50 nM [8]: 0.818; A405, TF/FVIIa/FX complex assay, Ab 100 nM [8]: 0.859 |
| B7 | – | – | – | – | – | – | – | – | – | – | – | – | – | – | – | – | – | – | – | – | FXa assay % of FXa alone, 2.5 nM Ab, 10 nM TFPI [6]: 5.9%; FXa assay % of FXa alone, 5 nM Ab, 10 nM TFPI [6]: 6%; FXa assay % of FXa alone, 10 nM Ab, 10 nM TFPI [6]: 6.5%; FXa assay % of FXa alone, 20 nM Ab, 10 nM TFPI [6]: 7.2% |
